# Test: yeast display, Sf9 membrane polyspecificity reagent, FACS + sequencing; frameworks hold sequencing errors
# How it was run: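 Galactose-induced (36–48 hours) yeast carrying a synthetic nanobody display library were exposed to 10% biotinylated, detergent-solubilized Sf9 membrane reagent at 4 °C for 1 hour. FACS followed streptavidin microbead enrichment, using low and high (top ~1%) gates for expression (anti-HA) and reagent binding (streptavidin). Colony PCR, MiSeq 2 × 250 sequencing and CDR-length filtering followed. Labels for polyreactivity reflect the gate of origin.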
row,Sequence,polyreactivity (PSR sort gate)
1,QVQLVESGGGLVQAGGSLRLSCAASGRIIGQYAMGWYRQAPGKERELVAAITQRGGSTYYADSVKGRFTISRDNAKNTVYLLMNCLKPEDTAVYYCNKRYRFTGIRDPFDYWGQGTQVTVSS,low polyreactivity
2,QVQLVESGGGLVQAGGSLRLSCAASGSTFLVYAMGWYRQAPGKERELVAVIDNGGDTYYADSVKGRFTISRDNAKNTVYLQMNSLKPEDTEVYYCAADLSYLGYWEYDYWGQGTQVTVSS,low polyreactivity
3,PVQLVESGGGLVQAGGSLRLSCAASGSIFGVNDMGWYIQGAGKERELVAGINQGGGSTYYADSVKGRFTISRDIAKNTVYLQMNSLKPEDTAVYYCAAVRYVLRSPARYGYWGQGTQVTVSS,low polyreactivity
4,QVQLVESGGGLVQAGGSLRLSCAASGSTFYGYVMGWYRQAPGKERELVAAITWRGTSTYYADSVKGRFTISRDNAKNTVYLQMNSLKPEDTAVYYCRGYYDRDVDYWGQGTQVTVSS,high polyreactivity
5,QVQLVEAGGGLVQAGGSLRLSCAASGFILENYAMGWNRQAPGKERELVAAISGSGGTTYYADSVKGRFTISRDNAKNTVYLQMNSLKPEDTAVYYCNRDRLLRQYDYWGQGTQVTVSS,high polyreactivity
6,HVQLVESGGGLVQAGGSLRLSCAASGFIFRGHVMGWYRQAPGKERELVAAISGGSTTYADSVKGRFTISRDNAKTTVYLQMNSLKPEDTAVYYCAKRDQDRTFPNGYWGQGTQVTVSS,high polyreactivity
7,QVQLVESGGGLVQAGGSLRLSCAASGRTFRPYAMGWDRQAPGKEREFVAAIRSSGDSTYYADSVKGRFTISRDNAKNTVYLQMNSLKPEDTAVYYCAADVYRYRVRGMNYWGQGTQVTVSS,high polyreactivity
8,QVQLVESGGGLVQAGGSHRLSCAASGLIFYYYAMGWYRQAPGKERELVAAITWTAGSTSYADSVKGRFTISRDNAKNTVYLQMNSLKPEDTAVYYCAADYRHDTFSNEYDYWGQGTQVTVSS,low polyreactivity
9,QLQLVESGRGLVQAGGSLRLSCAASGFTFRTYAKGWYRQAPGKERELVAAITVSGGTYYADSVKGRFTISRDNAKNTVYLQMNSLKPEDTAVYYCTAKRFRTGFDYWGQGTQVTVSS,low polyreactivity
10,QVQLVESGGGLVQAGGSLRFSCAASGFIFSAYAMGWYRPAPGKERELVAAITWNGGSTYYADSVKGRFTISRDNAKNTVYLQMNSLKPEDTAVYYCNAVIKQHYIKYSYWGQGTQVTVSS,high polyreactivity
11,QVQLVESGGGLVQAGGSLRLSCAASGSIFGRNAMGWYRQAPGKERELVADIWNGGSTYYADAVKGRFTISRDNAKNTVYLQMNSLKPEDTAVYYCNADADDVGRFGGYIKYDYWGQGTQVTVSS,low polyreactivity
12,QVQLGESGEGLVQAGGSLRLSCAASGFTCGYYTMGLYRQAPGKERELVAAISSSGGRTYYADSVKGRFTISRDNAKNSVYFQMNSLKPEDTAVYYCNVYYISTDLYYWGQGTQVTVSS,high polyreactivity
13,QVQLVESGGGLVQAGGSLRLSCAASGRTYYDYAKGCYRQAPGKEREFVSAITDRDASTSYADSVKGRFTISRDNAKTTVYLQMNSLKPYDTAVYYCAADEYWYKPYVGELYAYVYWGEGTQVTVSS,low polyreactivity
14,QVQLVESGGGLVQAGGSLRLSCAASGSTFDRNVMGWNRQAPGKERELVAAISRVSSTNYADSVKGRFTISRDNAKNTVYLQMHSLKPEDTAVYYCAADRAGSIMNYWGQGSQVTVSS,low polyreactivity
15,QVQLVESGGGLVQAGGSLRLSCAASGFIFKVYAMGWYRQAPGKERELVAAISSRGGRTNYADSVKGRFTISRDNAKNTVYLQMNSLKPEDTAVYYCATGAAGAYDYWGQGTQVTVSS,high polyreactivity
16,QVHLVESGGGLVQAGGSLRLSCAASGFTFRYYGMGRYRQAPGKERELVAAISRGGSTNYADSVKGRFTISRDNAKNTVYLQMTSLKPEDTAVYYFAKAGLTYRALRYYWGQGTQVTVSS,high polyreactivity
17,QVQHVDSAGGLVQAGGSLRLSCAASGSTFAPNAMGWYRQAPGKERELVAAISFRGVRTYYADSVKGRFTISRDNAKNTVYLQMNCLKPEDTAVYYCNKRVQRRNKPGAYNYEYWGQGTQVTVSS,high polyreactivity
18,QVQLVESGGGLVQAGGSLRLSCAASGSISVYYAMGRYRQAPGKERELVASIRYTGGRTYYADSVKGRFTISRDNAKNTVYLQMNSLKPEDTAVYYCAADVKRDRVWGGDYWGHGTQVTVSS,low polyreactivity
19,QVQLVESGGGLVQAGGSLRLSCAASGGTFHLNAMGWYRQAPRKEREFVASISWSGGSTYYADSVKGRFTISRDNAKNTVYLQMNCLKPEDTAVYYCARRKYYRQGGRTKGYDYWGQGTQVTVSS,high polyreactivity
20,QVQLVESAGGLVQAGVSLRLSCAASGRTFVGNAMGGYRQAPGKERELVADITWSGDITYYADSVKGRFTIARDTAKNTVYLQMISLKPEDTAVYYCAADYHRRLTDYDYWGQGTQVTVSS,low polyreactivity
21,QVQLVESGGGLVQAGGSLRLSCADSGYIFEVYAMGWYRPAPGKERELVAAIDYSDGTTYYADSVKGRFTISRDNAKNTVYLQMNSLKPEDTAVYYCAADFPGQHYDYWGQGTQVTVSS,low polyreactivity
22,QVQLVESGGGLVQAGGSLRLSCAASGIIFNTYAMGWYRQAPGKERELVAAIDSRDASTYADSVKGRFTISRDNAKNTVYLQMNSLKPEDTAVYYCAATHIVDLISEVYYWGQGTQVTVSS,low polyreactivity

row,Sequence,polyreactivity (PSR sort gate)
1,QVQLVESGAGLVQAGGTLRLSCAASGFTCRYYAMGWSRQAPGKERELVASISWSGDSTYYADSVKGRFTISRDNAKNTGYLQMNSLKPEETAFYYCARQTGFPRSYIYRMYYWGQGTQVTVSS,high polyreactivity
2,QVQLVESGGGLVQAGGSLRLSCAASGSIFGANAMGWYRQAPGKERELVAAISSGDSTYADSVKGRFTISRDNAKNTVYLQMNSLKPEDTAVYYCATCRYGGQGYPFYYWGQGTQVTVSS,low polyreactivity
3,QVQLVESAGGLVQAGGSLRLSCAASGFTFYWYAMGWYRQAPGKEREFVAAIDQSGGSTYYADSVKGRFTISRDNAKNTVYLQMNSLKPEDTAVYYCAARYILWDGDSWTEFDYWGQGTQVTVSS,low polyreactivity
4,QVQLVESGGGLVQAGGSLRLSCAASGRTFSSYAMGWYRQAPGKERELVAAINWSGASTYYADSVKGRFTISRDNAKNTVYLQMNSLKPEDTAVYYCAKSLYVGKYWQIRSSVDYWGQGTQVTVSS,low polyreactivity
5,QVQLVESGGGLVQAGGSLRLSCAASGNTFRSYAMGWYRQAPGKERELVAAISSTGNTYYADSVKGRFTISRDNAKNTVYLQMNSLKPEDTAVYYCAASKWRRADYYYWGQGTQVTVSS,high polyreactivity
6,QVQLVESGGGLVQAGGSLRLSCAASGSTFTRYAMGWYRQAPGKERELVAAISSSAGRTYYADSVKGRFTISRDNAKNTVYLQMNSLKPEDTAVYYCAATRVYAGAQYDYWGQGTQVTVSS,high polyreactivity
7,QVQLVDSGGGLVQAGGSLRLSCAASGSIYGFYAMGWYRQAPGKERELVATIRTSGGNTYYADSVKGRFTISRDNAKNTVYLQLKSMKPEDTAVYYCAAAGYLYSGDVHYLYTYEYWGQRTQVTVSS,low polyreactivity
8,QVQLVESGGGLVQAGGSLRLSCAASGRTIYRNAMGWYRQAPGKERELVAAITSGGSTNYADSVKGRFTLSRDNAKNTGYLQMNSLKPEDTAVYYCAATRGRYLWYYRYDYWGQGTQVTVSS,high polyreactivity
9,QVQRVESGGGLVQAGGSLRLRCAASGRTFMTNAMGWYRQAPGTERELVAAISSGASTNYADSVKGRFTISRDNAKNTVYLQMNSLNPEDTAVYYCGAQLTDYQSKTLSYDYWGQGTQVTVSS,low polyreactivity
10,QVQLVESGGGLVQAGGSLRLSCASSGYTFYAYAMGWYRQAPGKERELVAAISGSGGNTRYADSVKGRFTISRDNAKNTVYLQMNILKPEDTAVYYCAKRIIRSPFGAYGYWGQGTQVTVSS,high polyreactivity
11,QVQLVESGGGLVQAGGSLRLSCAASGRTFVQNAMGWYRQAPGKERELVASIRYRDGSTYYADSVKGRFTISRDNAKNTVYLQMNSLKPEDTAVYYCAVRVTSDYYASRYYYWGQGSQVTVSS,high polyreactivity
12,QVQLVESGGGLVQAGGSLRLSCAASGSIFPPNAMGWDRQAPGKERELVAGISQSGGSTYYAESVKGRFTISRDNAKNTVYLQMNSLKPEDTAVYYCARSFYSGRRYYYWGQGTQVTVSS,high polyreactivity
13,QVQLVESGGGLVQAGGSLRLSCAASGRIFTRYAMGWYRQAPGKERELVATISRGGNTNYADSVKGRFTISRDNAKNTVYLQMNSLKPEDTAVYYCAKYPVSRVGGYGYWGQGTQVTVSS,low polyreactivity
14,QVQLVESGGGLVQAGGILRLSCAACGITVTSYAMGWYRQAPGKERELVAVITGTGGITYYADSVKGRFTISRDNAKNTVYLQMNSLKPEDTAVYYCAAELELREYDYWGQGNQVTVSS,high polyreactivity
15,QVQLVESGGGLVQAGGRLRLSCAASGSTSQSNAMGWYRQAPGKERELVAAISWSGTSTYYADSVKGRFTISRDNAKNTVYLQMNSLKPEDTAVYYCAADYIFDYDYWGQGTQVTVSS,low polyreactivity
16,QVQLVESGGGLVQAGGSLLLSCAASGFTFSYYAMGWYRPAPGKERELVAAINWNGGSTYYADSVKGRFTISRDNAKNTVYLQMNSLKPEDTAVYYCNARQSYRYSQHGYWGQGTQLTVSS,high polyreactivity
17,QVQLVESGGGLVQAGGSLRLSCAASGSTFAPNAMGWYRQAPGKEREFVASITWRGGSTYYADSVKGRFTISRDNAKNTVYLQMNSLKPEDTAVYYCANLKRGFYRLFGFRYDYWGQGTQVTVSS,low polyreactivity
18,QVQLVESGGGLVQAGGSLRLSCAASGHIFTRNSMGWYRQAPGKERELVAAISRTGGSTYYADSVKGRFTISRDNAKNTVYLQMNSLKPEDTAVYDCAKRRQASEDYWGQGTQVTVSS,high polyreactivity
19,QVQLVESVGGLVQAGGSLRLSCAASGSIFRSYAMGWYRQAPGKERELVAAISWSGASTYYADSVKGRFTISRDNAKNTVYLQMNSLKPEDTAVYYCAARPRYWRWYSGDYWGQGTQVTVSS,high polyreactivity
20,QVQLVESGGGLVQAGGSLRLSCAASGSIFVYYAMGWYRQSPGKERELVAAINWSGGSTYYADSVKGRFTISRDNAKKTVYLQMNSLKPEDSAVYYCNAYLSPYDYDYWGQGTQVTLSS,low polyreactivity
21,QVQLVESGGGLVQAGGSLRLSCAPSGFTFVYYAMGWYRQAPGKERELVASISGGGRTYYADSVKGRFTISRDNAKNTVYLQMNSLKPEDTAVYYCAAEQYIRPYYRWVWVSYGYWGQGSQVTVSS,high polyreactivity
